Measured values published in patent US20250034601A1 (PURDUE RESEARCH FOUNDATION, published 2025).

T1: cEYFP-PhBSβ (PhBSβ tagged at its N-terminus with the C-terminal half of EYFP) (Petunia hybrida)
T1 construct: BiFC construct, transiently expressed in Nicotiana benthamiana leaves; not shown: C-terminal half of enhanced yellow fluorescent protein (cEYFP) of plasmid pCNHP-cYFP-C
T1 chain: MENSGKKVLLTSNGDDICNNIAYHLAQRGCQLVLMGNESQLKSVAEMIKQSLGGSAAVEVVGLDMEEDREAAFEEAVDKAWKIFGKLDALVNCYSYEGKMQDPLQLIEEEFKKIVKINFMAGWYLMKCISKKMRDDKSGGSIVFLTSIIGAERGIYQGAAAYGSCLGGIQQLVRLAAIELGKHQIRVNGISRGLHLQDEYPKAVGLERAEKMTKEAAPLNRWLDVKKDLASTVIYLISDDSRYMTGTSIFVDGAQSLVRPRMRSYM

B1: MBP-PhBSα (maltose binding protein-tagged alpha subunit of Petunia hybrida benzaldehyde synthase) (enzyme, not shown: large carriers)
chain: MEKQTQARFLEPWRDLKGKVVMVTGASSGIGLDLCLDLAKAGCKIIAAARRVDRLKSLCNQINAAADDDDDNNRAVAVELDVSANGDAIEAAVKEAWGAFGRIDALVNNAGVRGTVHSPLELTEEECHNTFRTNLTGTWLVSKYVCKFMRDAKQGGSVINISSIAGLNRGQLPGGLAYVSSKGAVNMVTKVMALELGVDKIRVNSISPGLFKSEITQGLIQKEWLNNVAMRTIPLRTHGNSADPALTSVVRYLIHDSSEYVSGNLFIVDAGATLPGVPIFSSL
notes: Coding region amplified from petunia petal cDNA, expressed in E. coli from pMAL-c5X, purified on amylose resin; also called MBP-tagged α-subunit; MBP-PbBSα

Experiments:
[1] = biological target: B1; test: size exclusion chromatography (Superdex 200 Increase 10/300 GL), about 1 mg/mL
Protocol: (§1) 500 μL purified protein (˜ 500 μg) were loaded onto a Superdex 200 Increase 10/300 GL size exclusion column and eluted with PBS. The column was calibrated with the following markers: bovine thyroglobulin (670 kDa), bovine gamma globulin (158 kDa), chicken ovalbumin (44 kDa), horse myoglobulin (17 kDa), and vitamin B-12 (1.4 kDa).

[2] = biological target: the molecule itself; test: size exclusion chromatography (Superdex 200 Increase 10/300 GL), about 1 mg/mL; self-association
Protocol: as §1

[3] = biological target: T1, cEYFP-PhBSβ (PhBSβ tagged at its …); test: bimolecular fluorescence complementation (BiFC) in Nicotiana benthamiana leaves, confocal microscopy
Protocol: The resulting constructs were used for transient expression in N. benthamiana leaves.
Transformation of constructs into A. tumefaciens and infiltration of cell cultures in tobacco leaves were performed as described above except that the final OD₆₀₀ of the culture was adjusted to 0.6. […] 48 hours after infiltration, the fluorescent signals in the leaves were imaged using a Zeiss LSM-880 laser-scanning confocal microscope (Zeiss, Thornwood, NY, USA).

Row | binding result [1] | binding result [3] | Binder | binding result [2]
1 | binds | – | MBP-tagged AtBSβ (beta subunit of Arabidopsis thaliana benzaldehyde synthase) (enzyme, not shown: large carriers, Purified recombinant subunit from E. coli; CDS amplified from flower cDNA (gene AT3G01980)) MENPAKRVLMTSNGDEVSRNIAFHLAKHGCKLVMMGNEGSLRSIVDKIRDSIEGAFPADVIALDMESDSEVAFHAAVQKAWELSGHFDAFLNSYTYQGKVQDILQVSQDEFHRITKINLTAPWFLLKAVATRMKDHGSGGSIVFMATIASGERALYPGADAYASTSAAIHQLVRASAMSLGKHKIRVNMISRGLHLDDEYTASVGRDRAQKLVKDAAPLGQWLNPDTDLYSTVIYLISDGSRFMTGTTVLVDGAQSLTRPRLKSYM | binds
2 | – | binds | nEYFP-PhBSα (PhBSα tagged at its N-terminus with the N-terminal half of EYFP) (other, BiFC construct, transiently expressed in Nicotiana benthamiana leaves; not shown: N-terminal half of enhanced yellow fluorescent protein (nEYFP) of plasmid pCNHP-nEYFP-C) MEKQTQARFLEPWRDLKGKVVMVTGASSGIGLDLCLDLAKAGCKIIAAARRVDRLKSLCNQINAAADDDDDNNRAVAVELDVSANGDAIEAAVKEAWGAFGRIDALVNNAGVRGTVHSPLELTEEECHNTFRTNLTGTWLVSKYVCKFMRDAKQGGSVINISSIAGLNRGQLPGGLAYVSSKGAVNMVTKVMALELGVDKIRVNSISPGLFKSEITQGLIQKEWLNNVAMRTIPLRTHGNSADPALTSVVRYLIHDSSEYVSGNLFIVDAGATLPGVPIFSSL | –
3 | – | – | B1 | binds
4 | – | – | MBP-tagged PhBSβ (beta subunit of Petunia hybrida benzaldehyde synthase) (enzyme, not shown: large carriers, Purified recombinant subunit from E. coli (pMAL-c5X, amylose resin); also called PtBSβ) MENSGKKVLLTSNGDDICNNIAYHLAQRGCQLVLMGNESQLKSVAEMIKQSLGGSAAVEVVGLDMEEDREAAFEEAVDKAWKIFGKLDALVNCYSYEGKMQDPLQLIEEEFKKIVKINFMAGWYLMKCISKKMRDDKSGGSIVFLTSIIGAERGIYQGAAAYGSCLGGIQQLVRLAAIELGKHQIRVNGISRGLHLQDEYPKAVGLERAEKMTKEAAPLNRWLDVKKDLASTVIYLISDDSRYMTGTSIFVDGAQSLVRPRMRSYM | binds
